This passage reports percent of parent results from article PMC2606027 (2009).

B1: LEDGF IBD fused to Gal4 transcription activation domain (WT prey) [human] / Full-length HIV-1 IN fused to the DNA binding domain of Gal4 (WT bait) [HIV-1] (parent complex)
chain 1: SMDSRLQRIHAEIKNSLKIDNLDVNRCIEALDELASLQVTMQQAQKHTEMITTLKKIRRFKVSQVIMEKSTMLYNKFKNMFLV
chain 2: not shown

In one assay the parent is B1. Description: yeast two-hybrid (β-galactosidase reporter); S. cerevisiae Y187; quadruplicate measurements.
Regarding chain 1 K46E, the percent of parent is 129 % of WT/WT.
Same read-out and setting: the same measure for chain 1 K14E: 139 % of WT/WT.

In another assay the parent is B1. Description: yeast two-hybrid (β-galactosidase reporter); S. cerevisiae Y187; quadruplicate measurements; read off a plot.
For the variant chain 1 K55E, chain 1 K56S, chain 1 R59E, the percent of parent was ~1.3 % of WT/WT.
Same read-out and setting: the value for chain 1 D20N was ~1.2 % of WT/WT.
Still for that read-out and setting: the value for chain 1 K55E, chain 1 K56E, chain 1 R59E was ~1.4 % of WT/WT.
